This is an account of results in paper PMC3437054.

Series [1] has as its target PCNA (Saccharomyces cerevisiae) (UniProt P15873). Conditions: cited from earlier work.
Series [2] addresses Replication factor C (RFC-A/B/C/D/E) (Saccharomyces cerevisiae, UniProt P38630;P40339;P38629;P40348;P38251 1-861;1-323;1-340;1-353;1-354). The series can be described thus: stopped-flow TAMRA fluorescence.
Series [3] deals with Replication factor C (RFC-A/B/C/D/E);PCNA (wild type) (Saccharomyces cerevisiae;Saccharomyces …, UniProt P38630;P40339;P38629;P40348;P38251;P15873 1-861;1-323;1-340;1-353;1-354;1-258, |). The series can be described thus: fluorescence intensity.

For orientation: Kd means the concentration at which binding is half-saturated. As to RFC (from UniProt P38630), the Kd in series [1] is 1 nM.

B1: 40/65-nt ptDNA-TAMRA (mixed)
DNA 1: ATTTCCTTCAGCAGATAGGAACCATACTGATTCACATGGC
DNA 2: TAGTTAGAACCTAAGCATATTAGTAGCCATGTGAATCAGTATGGTTCCTATCTGCTGAAGGAAAT
modifications: 3' amino linker on primer
As to B1, the binding result in series [2] is “binds”. The molecule further gave a Kd in series [3] of 1 nM.
